The values that follow are results of earlier work, collected in PMC8393326, “A Thermodynamic Analysis of the Binding Specificity between Four Human PDZ Domains and Eight Host, Viral and Designed Ligands” (Biomolecules, 2021).

Data set [1] addresses phosphorylated ERBB2 peptide (Homo sapiens).
The target in data set [2] is ERBB2 peptide (Homo sapiens).

Chain of Erbin PDZ (Q96RT1 1318-1412): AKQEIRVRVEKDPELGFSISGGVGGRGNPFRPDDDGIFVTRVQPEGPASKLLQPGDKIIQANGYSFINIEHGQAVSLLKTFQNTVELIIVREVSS

As for Erbin PDZ (from UniProt Q96RT1), the Kd – broadly, the constant that tells how readily two partners part at equilibrium – in data set [1] is 128 µM; in data set [2] it was 50 µM.
